Measurements reported in the supplement of paper PMC12636428.

These sequences were tested on Saccharomyces cerevisiae (assay: transcriptional activation domain activity (GFP:mCherry ratio, weighted mean of sorted bins, harmonized to initial dataset scale) (arbitrary fluorescence ratio units); higher = stronger transcriptional activation). Details: beta-estradiol 1 µM; induction time 4 h.
Description: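 53-aa protein tiles (fungal proteins plus yeast TF control tiles) fused C-terminally to a DBD-estrogen-binding domain-mCherry synthetic TF, integrated in S. cerevisiae (URA3 locus) with a GFP reporter. Cells were induced with 1 uM beta-estradiol for 4 h at 30 C, FACS-sorted into 8 bins by GFP:mCherry ratio and barcodes sequenced. Activity is the read-weighted mean bin fluorescence (GFP:mCherry), averaged over barcodes (median 12); tiles under 50 reads were discarded. New active-learning values were harmonized by linear fit onto the scale of the initial (Hummel et al.) dataset. The assay saturates at low and high signal.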
With “INSTVHNLCELVLLPELFGFCCFSMRFFVFIDLLGTLILPATVVYLLYLIIVV” the “transcriptional activation domain activity” value was 26100.
For “SRVSLTVFRFSYVWLSLIFAIPLLCAVLIELYFLMPLHAWMGPSEPHVVHLIQ”, the “transcriptional activation domain activity” value was 46800.
With “LADNKFSYLPPTLEELMEEQDCNNGRSFKNFMFSNDTGIDGSAGTDDDYTKVL” the “transcriptional activation domain activity” value was 60000.
“NIQSFDAIYFAALQVIIVSSANGWSPLMYQMMDSEFFVSCVFFIICIVVLNFW” was tested, and the “transcriptional activation domain activity” value was 61500.
In the case of “KSPHMSAVESKPKEAKTVVEPKADKAAEVKKEEPKKEVVAAPEPVAAKPIAQI”, the “transcriptional activation domain activity” value was 35600.
“MFLLFRSPCLLVLYIFWVGQSGVGLRGVGVHHFFFFFFSLLAALLLFCLCGAI” was tested, and the “transcriptional activation domain activity” value was 29400.
“MKRSAAALVSYPSSDEETSEAQAKSEPIKKKKKLPQLSSSLVVPVPVDNPALH” was tested, and the “transcriptional activation domain activity” value was 41300.
“LFHSVVSIYRLLFFFSVDHSAGVRFFFCFLFLPSLIFCIAFPISIISGFLVFF” was tested, and the “transcriptional activation domain activity” value was 49600.
For “YPVGKQVLARYPETTTFYRAEVMGTKRDGTCRLKFEGEEEVGKETEVERRLVL”, the “transcriptional activation domain activity” value was 77100.
“NNNYNNVSGKNNNNNNITNNSNNNHNNNNNDNNNNNNNNNNNNNNNNNSGNSS” was tested, and the “transcriptional activation domain activity” value was 49500.
With “KSKKTEAEAEEEEVTEEVKPEKKEKKEKKEKKEKKRKRDAEEDAAETKPAEKA” the “transcriptional activation domain activity” value was 17600.
In the case of “FLFFFFLLLFLLYSSLPLPPFLYPSLPLCRFSLFYYYLLLWFHFPCFSPFFLF”, the “transcriptional activation domain activity” value was 57900.
With “AAEDVEGEGEAKEKKSKKRRAEANGVGEGEEGERKKKKRKEKAVEQTEEEVKP” the “transcriptional activation domain activity” value was 34800.
“MSPSSAVFFFFFFCIALFDSVWLVSFFMVLFFLFDSSLYSLLFFSCLFFFIHS” was tested, and the “transcriptional activation domain activity” value was 50000.
“PNVFGLMLFELGLGFWIKTDYYYMLICLSVSSLVFRAEISLLSGLLVLQDIFL” was tested, and the “transcriptional activation domain activity” value was 66400.
For “MEDAADDGAASTKKAKVSKKRKKDIESDGEQEKPAKTPKTKLKLNNKTPKEAS”, the “transcriptional activation domain activity” value was 48700.
“MMMGTIVKSFFLFTFTFSIFFFYFFPRVLFTPFFFTYWTSAFFLLLFLFFFLF” was tested, and the “transcriptional activation domain activity” value was 64900.
“SDGEESDAGAKERKRKKKRRAKDSESESSDEEEKRKKTKRSKSKSKRRSPSPS” was tested, and the “transcriptional activation domain activity” value was 25700.
With “RRRKSNSTKPGNAGSKPAKKNKGANSNERERESKEVDEDEDEGNGGGEGEGEE” the “transcriptional activation domain activity” value was 8620.
For “CVRVLCISFSLTLSSSCLLVGIVLRWSLCCLLYFVCVPLHLDTLLSFSSIPTL”, the “transcriptional activation domain activity” value was 50600.
“MGGVWGFLWSFFFLFPLFFFSLSKDGLDCFISFILVSFYFFSFLFCIHVFFFS” was tested, and the “transcriptional activation domain activity” value was 15600.
“MVVFGCRCNVMLYILFCNLRFLLRGAVCIQILTMFILWCAMTEIVLSVLPILS” was tested, and the “transcriptional activation domain activity” value was 47300.
In the case of “MSKRAAEGSDSAGSSKKVKQDDSASTVFQKDEEGNLYVDLSSMKRATVSVFRG”, the “transcriptional activation domain activity” value was 60400.
In the case of “HDDSFIESEEWLSKFIMDSQIDNDLKLNINHFNDIGFNNLHPQNPTTHSEPRN”, the “transcriptional activation domain activity” value was 117000.
In the case of “QCIFVLLVLLMRRHLAKMHLCLKQEIDWRELDDDRDTVTWVVAAVWQRFIDLK”, the “transcriptional activation domain activity” value was 61000.
In the case of “KAAPAPAASGDEGGEDEDEEDGDAVARRHQSKRSRRGIVVEESDEEDEGEPAA”, the “transcriptional activation domain activity” value was 41100.
For “MLLLRVAGGRVMGCDVVGGFFFIFLFYLFIILGFVCCLVGWHVCWVFWFLVGF”, the “transcriptional activation domain activity” value was 54300.
With “VVTRWILFIVPMLGIVWIPGILSLTTFPHATVWGVKLIWWSIWLSVVWGGWWV” the “transcriptional activation domain activity” value was 38300.
In the case of “KASKSKKRKHHHHKSAVSSPEASDADTASQSSKRSKKSKRRHADADARAAANG”, the “transcriptional activation domain activity” value was 36700.
In the case of “MVLFLFCLITFACSRTWVMAFLLIWVSSFFLFILFFFSFFSYYAFRVLPLCYS”, the “transcriptional activation domain activity” value was 46300.
With “KTSNDLKYLFTFVEYHVFVSLIRRSLSQLDENKEKHEQMIKLYDDILKNIECI” the “transcriptional activation domain activity” value was 24800.
With “MTIDVIHVTYFTFFFFIIVLIYAHLVIPYILDVELLTYFLNDAFKWNMLNMLF” the “transcriptional activation domain activity” value was 50200.
“GGKEEGGEETGERATKQQKTTPQESNKGSQGGNNNQRQGGGRNRHGRNRNGGG” was tested, and the “transcriptional activation domain activity” value was 30400.
In the case of “VRVRVRVQGREQVQVQVRELHPEQGHPHQEQEPLHLAREHHPELHQQKDQEHL”, the “transcriptional activation domain activity” value was 52900.
In the case of “LLLRGSTFSFLLSSFLHFFIALVNCMLYTPPKFFKNPFCMFILFYLSYLLWGT”, the “transcriptional activation domain activity” value was 66000.
“KKRGKRTTNGKESGRSSKKARAGSQPKPRTNARTANAAAEDDDDDDEEDDHEG” was tested, and the “transcriptional activation domain activity” value was 46700.
With “TSSTNHFYGTVVKTKDLLPIYLDVVLWMLKRDLLVTLHLRVRIVVPAELKERA” the “transcriptional activation domain activity” value was 59600.
With “FLLSTSFYFVFILFLFHFYIVLFLLPPPSLSFPLSLPYLSAFIVLTPTQLWPA” the “transcriptional activation domain activity” value was 77600.
In the case of “KAEAEAEAQPIAAAKTPRTRKAAAKPKAAAPSPTPAIPKTQAPTASAPAAPLP”, the “transcriptional activation domain activity” value was 18300.
For “VGPLSLDIILNKYDQDTELCAIVHESRRMLVRFYDIVKQNAMVIYSVFLWIPT”, the “transcriptional activation domain activity” value was 50900.
“TISRLVFAECFAESCVMFLLLMFQALDVLEPSSRLLNWRISLYILMSMILLFV” was tested, and the “transcriptional activation domain activity” value was 52800.
For “WDGGPTSKLTHVLLTYRQSILVTVYSHLLLLDHSSQVWWRWMNIFFTLVIWSI”, the “transcriptional activation domain activity” value was 71000.
In the case of “WIDTVLIVLFSNDVQIKHKLGRLIIDEWIQIKCPTRTCLLLKLLRKKLHNSLA”, the “transcriptional activation domain activity” value was 33500.
For “SFMWVLVWLLVHIFKKFATITVDSATINRLARAFSSFDTGTVLTKEVILRLWR”, the “transcriptional activation domain activity” value was 52100.
In the case of “MGLWARFICFVIVCFQITFLYCLFSCSPSFLYFQKTQPLFFTFFFSFPSFLLL”, the “transcriptional activation domain activity” value was 56800.
“AGQVVQETVHRAGDALKETAESAAQHVFSPRRRRRRRRSSRTGSERAVVCCSR” was tested, and the “transcriptional activation domain activity” value was 62000.
“MGVLSFRFLFWSFFFLSVMFLFLFFVFLLGYWFWFWFWLLVWLLVGFCCLVFF” was tested, and the “transcriptional activation domain activity” value was 38500.
In the case of “IIKLLVFTLWVLDSMHLILCTIAIYWYLIRNFNNTTNLQLNHWSMNLQTDCNG”, the “transcriptional activation domain activity” value was 43600.
For “TMWHCMDLLFCVAPGRLIRETASGLYVHHCFECGTKLEPQPLHSLTITAYHLA”, the “transcriptional activation domain activity” value was 52300.
“LSELSSALDPTQAQYAYARIEYANDTESKRVKFILVIWIGEGTKVMRKARVSI” was tested, and the “transcriptional activation domain activity” value was 37600.
For “VKKAAEDGEDEAEEKPAPKAKRGRKKAELDEDDEEEAQPAKKKAKKAAPKAAA”, the “transcriptional activation domain activity” value was 21400.
For “HSLGSNASIDHLYTYTHAYIYTLYIWLPKMFSFFPFAIIFFLCMLLLFFIFIF”, the “transcriptional activation domain activity” value was 64600.
With “SASSRESSASASHSASKSESSAAASRTSSAPATQSTGAAVANRAGVVGAVAGG” the “transcriptional activation domain activity” value was 57700.
In the case of “EALPDDLYFTDFVSPFTAAATTSVTTKTVKDTTPATNHMDDDIAMFDSLATTQ”, the “transcriptional activation domain activity” value was 47700.
With “SEDERPRGGLKGRKGKKRVEREETSGGSDESSDEEGKRGKAKAGGKREVRTRS” the “transcriptional activation domain activity” value was 31900.
